# In IntAct's records for PubMed 21532587:
# B1: Protein transport protein SEC23 (Saccharomyces cerevisiae), P15303 (parent)
# chain: MDFETNEDINGVRFTWNVFPSTRSDANSNVVPVGCLYTPLKEYDELNVAPYNPVVCSGPHCKSILNPYCVIDPRNSSWSCPICNSRNHLPPQYTNLSQENMPLELQSTTIEYITNKPVTVPPIFFFVVDLTSETENLDSLKESIITSLSLLPPNALIGLITYGNVVQLHDLSSETIDRCNVFRGDREYQLEALTEMLTGQKPTGPGGAASHLPNAMNKVTPFSLNRFFLPLEQVEFKLNQLLENLSPDQWSVPAGHRPLRATGSALNIASLLLQGCYKNIPARIILFASGPGTVAPGLIVNSELKDPLRSHHDIDSDHAQHYKKACKFYNQIAQRVAANGHTVDIFAGCYDQIGMSEMKQLTDSTGGVLLLTDAFSTAIFKQSYLRLFAKDEEGYLKMAFNGNMAVKTSKDLKVQGLIGHASAVKKTDANNISESEIGIGATSTWKMASLSPYHSYAIFFEIANTAANSNPMMSAPGSADRPHLAYTQFITTYQHSSGTNRIRVTTVANQLLPFGTPAIAASFDQEAAAVLMARIAVHKAETDDGADVIRWLDRTLIKLCQKYADYNKDDPQSFRLAPNFSLYPQFTYYLRRSQFLSVFNNSPDETAFYRHIFTREDTTNSLIMIQPTLTSFSMEDDPQPVLLDSISVKPNTILLLDTFFFILIYHGEQIAQWRKAGYQDDPQYADFKALLEEPKLEAAELLVDRFPLPRFIDTEAGGSQARFLLSKLNPSDNYQDMARGGSTIVLTDDVSLQNFMTHLQQVAVSGQA
# B2: Casein kinase I homolog HRR25 (Saccharomyces cerevisiae), P29295 (parent)
# chain: MDLRVGRKFRIGRKIGSGSFGDIYHGTNLISGEEVAIKLESIRSRHPQLDYESRVYRYLSGGVGIPFIRWFGREGEYNAMVIDLLGPSLEDLFNYCHRRFSFKTVIMLALQMFCRIQYIHGRSFIHRDIKPDNFLMGVGRRGSTVHVIDFGLSKKYRDFNTHRHIPYRENKSLTGTARYASVNTHLGIEQSRRDDLESLGYVLIYFCKGSLPWQGLKATTKKQKYDRIMEKKLNVSVETLCSGLPLEFQEYMAYCKNLKFDEKPDYLFLARLFKDLSIKLEYHNDHLFDWTMLRYTKAMVEKQRDLLIEKGDLNANSNAASASNSTDNKSETFNKIKLLAMKKFPTHFHYYKNEDKHNPSPEEIKQQTILNNNAASSLPEELLNALDKGMENLRQQQPQQQVQSSQPQPQPQQLQQQPNGQRPNYYPEPLLQQQQRDSQEQQQQVPMATTRATQYPPQINSNNFNTNQASVPPQMRSNPQQPPQDKPAGQSIWL
# partner: B1 chain
# B3: Casein kinase I homolog HRR25 (Saccharomyces cerevisiae), P29295 (parent)
# chain: B2 chain
# partner: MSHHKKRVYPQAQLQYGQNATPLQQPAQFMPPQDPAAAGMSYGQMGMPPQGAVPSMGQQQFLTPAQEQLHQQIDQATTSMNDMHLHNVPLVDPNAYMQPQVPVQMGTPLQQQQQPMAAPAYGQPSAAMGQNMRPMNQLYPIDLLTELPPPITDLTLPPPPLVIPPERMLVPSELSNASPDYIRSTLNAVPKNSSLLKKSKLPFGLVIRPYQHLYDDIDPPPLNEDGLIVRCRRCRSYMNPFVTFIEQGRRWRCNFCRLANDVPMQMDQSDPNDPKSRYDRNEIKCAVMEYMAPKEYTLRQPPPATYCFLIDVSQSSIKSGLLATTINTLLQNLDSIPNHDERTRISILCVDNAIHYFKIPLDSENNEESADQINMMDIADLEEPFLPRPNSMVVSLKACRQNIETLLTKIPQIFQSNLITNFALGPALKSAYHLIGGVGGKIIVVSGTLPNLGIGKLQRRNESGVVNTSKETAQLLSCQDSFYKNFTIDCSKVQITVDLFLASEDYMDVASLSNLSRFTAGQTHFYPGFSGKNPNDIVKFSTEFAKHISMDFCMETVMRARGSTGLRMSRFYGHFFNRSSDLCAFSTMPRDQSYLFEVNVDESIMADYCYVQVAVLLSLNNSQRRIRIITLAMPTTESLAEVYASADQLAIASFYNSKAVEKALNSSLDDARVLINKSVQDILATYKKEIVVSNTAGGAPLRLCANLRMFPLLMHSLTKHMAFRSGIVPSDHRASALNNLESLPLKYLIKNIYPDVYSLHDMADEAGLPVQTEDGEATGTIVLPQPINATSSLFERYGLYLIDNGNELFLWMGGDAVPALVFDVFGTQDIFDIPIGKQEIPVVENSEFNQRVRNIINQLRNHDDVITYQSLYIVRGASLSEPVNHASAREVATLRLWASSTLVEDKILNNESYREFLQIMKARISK
# B4: Protein transport protein SEC23 (Saccharomyces cerevisiae), P15303 (parent)
# chain: B1 chain
# partner: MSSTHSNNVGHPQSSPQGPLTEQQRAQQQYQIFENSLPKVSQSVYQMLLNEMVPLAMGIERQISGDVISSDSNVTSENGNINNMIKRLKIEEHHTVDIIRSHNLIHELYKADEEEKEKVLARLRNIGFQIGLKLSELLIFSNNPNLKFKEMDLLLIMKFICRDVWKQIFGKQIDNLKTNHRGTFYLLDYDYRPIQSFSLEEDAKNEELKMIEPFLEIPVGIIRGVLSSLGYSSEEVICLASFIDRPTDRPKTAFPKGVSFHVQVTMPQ
# Variants of: B1
# Conditions: with sar1_yeast SAR1, P20606
# sar1_yeast SAR1, P20606, sequence (P20606 whole entry): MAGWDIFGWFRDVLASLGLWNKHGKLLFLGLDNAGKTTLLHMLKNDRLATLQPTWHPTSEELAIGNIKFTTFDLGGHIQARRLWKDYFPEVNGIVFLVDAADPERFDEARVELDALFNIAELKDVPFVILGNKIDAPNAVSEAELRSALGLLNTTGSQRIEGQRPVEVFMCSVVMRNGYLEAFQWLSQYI
row,Variant,effect of a mutation on the interaction
1,S742D,disrupting interaction
2,S742D;T747E,disrupting interaction
3,T747E,disrupting interaction

# Variants of: B2
# Conditions: with sec23_yeast SEC23, P15303
row,Variant,effect of a mutation on the interaction
1,K38A,disrupting interaction

# Variants of: B3
# Conditions: with sec24_yeast SEC24, P40482
row,Variant,effect of a mutation on the interaction
1,K38A,disrupting interaction

# Variants of: B4
# Conditions: with trs33_yeast TRS33, Q99394
row,Variant,effect of a mutation on the interaction
1,S742D;T747E,decreasing interaction
